Assay results: paper PMC2848857, “The Crystal Structure of PPIL1 Bound to Cyclosporine A Suggests a Binding Mode for a Linear Epitope of the SKIP Protein” (PLoS ONE, 2010)

Target: T1, GST-PPIL1 fusion protein (human, UniProt Q9Y3C6 1-166)
T1 construct: Peptidyl-prolyl isomerase like 1 (PPIL1), human, full length, cloned from a human cDNA library into pGEX-6P1; also called Recombinant GST-PPIL1; Peptidyl-prolyl isomerase like 1; source: E. coli Rosetta 2, glutathione-sepharose
T1 sequence (looked up): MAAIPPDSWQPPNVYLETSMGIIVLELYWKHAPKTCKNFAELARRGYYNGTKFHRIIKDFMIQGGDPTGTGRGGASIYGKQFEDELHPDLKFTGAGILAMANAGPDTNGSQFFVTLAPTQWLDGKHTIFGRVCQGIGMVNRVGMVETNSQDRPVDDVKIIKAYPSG
Assay: peptide or protein array; SKIP 20-mer peptides on cellulose membrane; GST-PPIL1 or GST alone at 40 µg/ml in blocking buffer (5% milk powder, 5% saccharose in TBS, pH 8.0), overnight at 4°C; detected with anti-GST antibody and chemiluminescence
Details: both partners purified

binding result: binds
B1: peptide A12 of the SKIP peptide array (peptide, UniProt Q13573 60-79, looked up)
peptide: DGGAFPEIHVAQYPLDMGRK
notes: The limits fit the twelfth peptide of a scan that starts at residue 49 with a one amino acid offset; source: synthetic peptide, spotted on cellulose membrane
